According to patent publication US20140234336A1:

Target: HA of H3N2 influenza virus Wyomin/3/03.rg (influenza A virus H3N2 Wyomin/3/03.rg)
Assay: cell-based or functional assay

Substance: CT149 antibody
- MN titer: 5 µg/mL
